# Paper PMC4456664 (2015)
# B1: PYL10 (protein)
# chain: MNGDETKKVESEYIKKHHRHELVESQCSSTLVKHIKAPLHLVWSIVRRFDEPQKYKPFISRCVVQGKKLEVGSVREVDLKSGLPATKSTEVLEILDDNEHILGIRIVGGDHRLKNYSSTISLHSETIDGKTGTLAIESFVVDVPEGNTKEETCFFVEALIQCNLNSLADVTERLQAESMEKKI
# Molecular target: BSA (Bos taurus, UniProt P02769)
# Assay: ITC
# BSA, sequence (P02769 25-607): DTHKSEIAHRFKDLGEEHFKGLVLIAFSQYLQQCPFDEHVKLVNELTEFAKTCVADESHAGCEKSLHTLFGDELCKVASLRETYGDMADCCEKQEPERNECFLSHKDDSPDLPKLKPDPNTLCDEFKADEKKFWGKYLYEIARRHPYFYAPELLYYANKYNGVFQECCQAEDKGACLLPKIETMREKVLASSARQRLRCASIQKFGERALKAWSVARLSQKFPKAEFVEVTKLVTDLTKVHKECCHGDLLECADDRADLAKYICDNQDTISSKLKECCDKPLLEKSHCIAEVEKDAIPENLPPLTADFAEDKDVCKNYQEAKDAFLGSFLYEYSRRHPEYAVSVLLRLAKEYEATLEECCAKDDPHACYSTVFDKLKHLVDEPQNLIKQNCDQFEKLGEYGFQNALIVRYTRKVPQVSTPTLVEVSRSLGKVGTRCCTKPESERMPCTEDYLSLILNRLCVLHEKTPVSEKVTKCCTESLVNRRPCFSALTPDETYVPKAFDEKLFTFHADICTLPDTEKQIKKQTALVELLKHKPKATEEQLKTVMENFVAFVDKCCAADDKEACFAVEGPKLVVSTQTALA
binder,measurement,value
B1,Kd,3000 nM
